Results published in paper PMC5718999.

Columns and labels:
[1] = molecular target: genetically engineered calmodulin (CaM) with cysteine on N-terminus (UniProt P0DP23); assay: atomic force microscopy (height of the immobilised protein pattern); CaM immobilised by cysteine-Hg-SH coupling on MUTMS patterns on OTS-coated silicon; soaked 10 min in CaM KI binding domain solution at 4 °C, rinsed with buffer; imaged in air, ac mode, 75% relative humidity, 25 °C; height from topography histograms
[2] = molecular target: genetically engineered calmodulin (CaM) with cysteine on N-terminus (UniProt P0DP23); assay: atomic force microscopy (height of the immobilised protein pattern); CaM immobilised by cysteine-Hg-SH coupling on MUTMS patterns on OTS-coated silicon; soaked 10 min in 1 g mL^-1 CaM KI binding domain solution at 4 °C, rinsed with buffer; imaged in air, ac mode, 75% relative humidity, 25 °C; height from topography histograms

Q: What does the source list for “Calmodulin-dependent protein kinase I (299-320) binding domain (from UniProt Q63450 299-320) (peptide)”?
A: apparent height above OTS of the KIBD-CaM pattern [1]: 4.2 nm; increase of the height of the CaM layer [2]: 11.3 Å
